Laboratory results from PMC8677862, “Substrate binding modes of purine and pyrimidine nucleotides to human ecto-5′-nucleotidase (CD73) and inhibition by their bisphosphonic acid derivatives” (Purinergic Signalling, 2021).

Substrate: Nc1ncnc2c1ncn2[C@@H]1O[C@H](COP(=O)(O)O)[C@@H](O)[C@H]1O
Test: purified protein, by the assay type
Format: biochemical, human
Settings: other: AMP 5-200 μM, 1.25 ng CD73; pH 7.5; 25.0 °C
Protocol: In this study, enzyme activity and inhibition data was characterised using a modified malachite green assay. Each assay consisted of reaction buffer A (50 mM Tris–HCl pH 7.5, 100 mM NaCl, 1 mM MgCl2) to which the appropriate substrate and/or inhibitors (see Table S1) were added. Dissolved compounds were immediately used for the inhibition assays. The reactions were generally initiated by the addition of protein. The protein concentrations, substrates and inhibitors used for the various experiments are detailed below. In all experiments, reactions were monitored over a 10-min period during which samples were taken at regular intervals. At each desired time point, a malachite green/molybdate (1:1) solution was added to the sample, which simultaneously terminated the assay and also allowed the detection of the produced phosphate ions. These reaction mixtures were incubated at 25 °C for 25 min, followed by measurement of the absorbance at 620 nm. […]
The specific activity (μmol Pi/min/mg protein) was calculated from the initial reaction rates and was used to determine when the protein refolding process had reached completion. […] Kinetic values were determined by fitting the Michaelis–Menten equation to the initial reaction rates using GraphPad Prism (GraphPad Software, La Jolla, CA, USA). […]

B1: human CD73 (Homo sapiens; K145S/K147S/K478S/N311D/N333D/N403D/N53D/T376A) (protein)
chain: WELTILHTNDVHSRLEQTSEDSSKCVDASRCMGGVARLFTKVQQIRRAEPNVLLLDAGDQYQGTIWFTVYKGAEVAHFMNALRYDAMALGNHEFDNGVEGLIEPLLKEAKFPILSANISASGPLASQISGLYLPYKVLPVGDEVVGIVGYTSKETPFLSNPGTNLVFEDEITALQPEVDKLKTLNVNKIIALGHSGFEMDKLIAQKVRGVDVVVGGHSNTFLYTGNPPSKEVPAGKYPFIVTSDDGRKVPVVQAYAFGKYLGYLKIEFDERGNVISSHGNPILLDSSIPEDPSIKADINKWRIKLDDYSTQELGKTIVYLDGSSQSCRFRECNMGNLICDAMINNNLRHADEMFWNHVSMCILNGGGIRSPIDERNDGTITWENLAAVLPFGGTFDLVQLKGSTLKKAFEHSVHRYGQSTGEFLQVGGIHVVYDLSRKPGDRVVKLDVLCTSCRVPSYDPLKMDEVYKVILPNFLANGGDGFQMIKDELLRHDSGDQDINVVSTYISKMKVIYPAVEGRIKFS
notes: His6 (C); made in house
Km: 10.5 µM | Vmax: 301.2 U/mg
